pIC50, pKi: −log10 of the molar value.
Legend:
[1] = target: recombinant human PD-L1(B7-H1)-His-tag protein (catalog #9049-B7, R&D systems) (human) (UniProt Q9NZQ7); assay: FRET competitive inhibition of PD-L1-His-tag binding to PD-1-Ig, Cheng-Prusoff
[2] = target: recombinant human PD-L1(B7-H1)-His-tag protein (catalog #9049-B7, R&D systems) (human) (UniProt Q9NZQ7); assay: FRET competitive inhibition of PD-L1 binding to PD-1
[3] = target: recombinant human PD-L1(B7-H1)-His-tag protein (catalog #9049-B7, R&D systems) (human) (UniProt Q9NZQ7); assay: FRET competitive inhibition of PD-L1-His-tag (80 nM) binding to PD-1-Ig (20 nM)
[4] = target: human PD-L1 on cells (CHO cells stably expressing human PD-L1; MDAMB231, HCC827, H226, doxycycline-treated A549-iPDL1 cells and their tumors) (human) (UniProt Q9NZQ7); assay: hPD-L1 cells, 1 uM blocking dose of WL12; competitor [^64Cu]WL12
human PD-L1 on cells (CHO cells stably expressing human PD-L1; MDAMB231, HCC827, H226, doxycycline-treated A549-iPDL1 cells and their tumors) (human), sequence (Q9NZQ7 19-290): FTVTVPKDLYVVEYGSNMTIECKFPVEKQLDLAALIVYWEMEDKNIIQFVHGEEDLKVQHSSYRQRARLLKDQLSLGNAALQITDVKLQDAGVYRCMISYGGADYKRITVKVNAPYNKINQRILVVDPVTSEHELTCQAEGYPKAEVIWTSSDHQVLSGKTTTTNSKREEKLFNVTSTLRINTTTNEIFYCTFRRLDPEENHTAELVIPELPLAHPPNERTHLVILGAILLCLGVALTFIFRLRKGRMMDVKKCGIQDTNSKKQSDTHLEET

[5] = target: human PD-L1 on cells (CHO cells stably expressing human PD-L1; MDAMB231, HCC827, H226, doxycycline-treated A549-iPDL1 cells and their tumors) (human) (UniProt Q9NZQ7); assay: flow cytometry on Cho-hPD-L1 and MDAMB231 cells; competitors Cy5-AtzMab, Cy5-AveMab, Cy5-DurMab (ends not tied to one mAb)
[6] = target: human PD-L1 on cells (CHO cells stably expressing human PD-L1; MDAMB231, HCC827, H226, doxycycline-treated A549-iPDL1 cells and their tumors) (human) (UniProt Q9NZQ7); assay: flow cytometry on hPD-L1 cells, serial dilutions of WL12; competitor Cy5-AtzMab
[7] = target: human PD-L1 on cells (CHO cells stably expressing human PD-L1; MDAMB231, HCC827, H226, doxycycline-treated A549-iPDL1 cells and their tumors) (human) (UniProt Q9NZQ7); assay: cell-based or functional assay
[8] = target: human PD-L1 on cells (CHO cells stably expressing human PD-L1; MDAMB231, HCC827, H226, doxycycline-treated A549-iPDL1 cells and their tumors) (human) (UniProt Q9NZQ7); assay: flow cytometry on hPD-L1 cells, serial dilutions of WL12; competitor BD-MIH1-PE
[9] = target: human PD-L1 on cells (CHO cells stably expressing human PD-L1; MDAMB231, HCC827, H226, doxycycline-treated A549-iPDL1 cells and their tumors) (human) (UniProt Q9NZQ7); assay: flow cytometry, in vitro binding; competitor Cy5-conjugated AtzMab
[10] = target: human PD-L1 on cells (CHO cells stably expressing human PD-L1; MDAMB231, HCC827, H226, doxycycline-treated A549-iPDL1 cells and their tumors) (human) (UniProt Q9NZQ7); assay: radiotracer on hPD-L1 cells, 1 h, gamma counting

recombinant human PD-L1(B7-H1)-His-tag protein (catalog #9049-B7, R&D systems) (human), sequence (Q9NZQ7 19-239 limits assumed): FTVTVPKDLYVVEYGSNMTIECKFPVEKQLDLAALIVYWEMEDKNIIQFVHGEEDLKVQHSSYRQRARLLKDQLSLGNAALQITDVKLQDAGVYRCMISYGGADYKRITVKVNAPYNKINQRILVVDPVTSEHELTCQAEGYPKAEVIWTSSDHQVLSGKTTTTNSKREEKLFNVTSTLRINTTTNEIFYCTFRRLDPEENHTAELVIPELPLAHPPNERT

pKi [1]	pIC50 [2]	pIC50 [3]	reduction in bound [^64Cu]WL12 [4]	inhibitory concentrations [5]	pIC50 [6]	reduction in % ID/g of [^64Cu]WL12 in hPD-L1 tumors on co-injection of excess WL12 (50 ug, 2 mg/kg), 2 h [7]	pIC50 [8]	pIC50 [9]	accumulation of [^64Cu]WL12 in A549-iPDL1 tumors after 72 h doxycycline against A549 control tumors [7]	radioactivity uptake in hPD-L1 tumors at 1 h, percentage of injected dose/g [7]	uptake of the incubated dose [10]	Substance
7.98	7.64	7.65	–	–	–	–	–	–	–	–	–	WL12-DOTAGA (WL12D) (peptide)
8.96	7.66	7.69	> 95%	5 nM	8.60	> 75%	7.42	7.42	–	–	–	WL12 (unmodified PD-L1 binding peptide)
–	–	–	–	–	–	–	–	–	65%	14.9 % ID/g	> 50%	[^64Cu]WL12 (peptide)
8.86	8.54	8.53	–	–	–	–	–	–	–	–	–	WL12-Cu^2+ complex (copper complex of WL12D) (peptide)

From patent US20190314531A1
